Test results taken from patent publication US11795488B2, “Methods for enzymatic peptide ligation” (NANYANG TECHNOLOGICAL UNIVERSITY, priority 2016, dated 2023).

B1: butelase 1: AEP1 from Clitoria ternatea, Asx peptide ligase extracted from plant, SEQ ID NO:4 (protein, listed as Clitoria ternatea)
chain: IRDDFLRLPSQASKFFQADDNVEGTRWAVLVAGSKGYVNYRHQADVCHAYQILKKGGLKDENIIVFMYDDIAYNESNPHPGVIINHPYGSDVYKGVPKDYVGEDINPPNFYAVLLANKSALTGTGSGKVLDSGPNDHVFIYYTDHGGAGVLGMPSKPYIAASDLNDVLKKKHASGTYKSIVFYVESCESGSMFDGLLPEDHNIYVMGASDTGESSWVTYCPLQHPSPPPEYDVCVGDLFSVAWLEDCDVHNLQTETFQQQYEVVKNKTIVALIEDGTHVVQYGDVGLSKQTLFVYMGTDPANDNNTFTDKNSLGTPRKAVSQRDADLIHYWEKYRRAPEGSSRKAEAKKQLREVMAHRMHIDNSVKHIGKLLFGIEKGHKMLNNVRPAGLPVVDDWDCFKTLIRTFETHCGSLSEYGMKHMRSFANLCNAGIRKEQMAEASAQACVSIPDNPWSSLHAGFSV
B2: sortase A: bacterial sortase commonly used to catalyze transpeptidation reactions; recognizes LPXTG (protein, UniProt Q2FV99 1-206, looked up)
Sortase A: MKKWTNRLMTIAGVVLILVAAYLFAKPHIDNYLHDKDKDEKIEQYDKNVKEQASKDKKQQAKPQIPKDKSKVAGYIEIPDADIKEPVYPGPATPEQLNRGVSFAEENESLDDQNISIAGHTFIDRPNYQFTNLKAAKKGSMVYFKVGNETRKYKMTSIRDVKPTDVGVLDEQKGKDKQLTLITCDDYNEKTGVWEKRKIFVATEVK

Key:
[1] = test system: peptide "[…]" (SEQ ID NO: 19); assay: Peptide cyclization assay of butelase 1; type: biochemical; conditions: butelase 1 extracted from plant, peptide GLPVSTKPVATRNHV
Experimental: Native and modified amino acids were purchased from Sigma-Aldrich (USA). All peptides used in this manuscript were synthesized in-house using the solid-phase method and HPLC purified. Cyclization assays were performed in 50-μl reaction mixtures containing 20 mM phosphate buffer, ligases (5 to 700 nM) and peptide substrates (10 to 300 μM). Each reaction was performed in triplicate at 37° C. and quenched by adding 5 μl of 1 M HCl solution. The peptides were separated by using a reversed-phase C18 analytical column (150×2.1 mm, Vydac) with a linear gradient from 10% to 50% acetonitrile over 15 min on a Nexera UHPLC system (Shimadzu). For kinetic analysis, the concentrations of WT OaAEP1, mutant OaAEP1, and butelase 1 were fixed at 700 nM, 50 nM, and 20 nM, respectively. The cyclization velocities were calculated by converting the HPLC-peak areas of remained linear precursors or the cyclized products into concentrations. The identity of each HPLC peak was analyzed by MALDI-TOF MS (ABI 4800 MALDI TOF/TOF). […] Comparison for the cyclization efficiency of various OaAEP1 mutants were performed in a volume of 20 μl of the reaction mixture and analyzed by MALDI-TOF MS after 10 mins or 1 hour ligation reaction.
The peptide cyclization activity of mature OaAEP1 was then analyzed using MS and the peptide substrate “[…]” (SEQ ID NO: 18) (FIG. 5A). […]

[2] = test system: ubiquitin with C-terminal Asn-Gly-Leu and peptide having N-terminal residues GlyLeu; conditions: comparison value; cited from earlier work
ubiquitin with C-terminal Asn-Gly-Leu and peptide having N-terminal residues GlyLeu, sequence (as listed by the source): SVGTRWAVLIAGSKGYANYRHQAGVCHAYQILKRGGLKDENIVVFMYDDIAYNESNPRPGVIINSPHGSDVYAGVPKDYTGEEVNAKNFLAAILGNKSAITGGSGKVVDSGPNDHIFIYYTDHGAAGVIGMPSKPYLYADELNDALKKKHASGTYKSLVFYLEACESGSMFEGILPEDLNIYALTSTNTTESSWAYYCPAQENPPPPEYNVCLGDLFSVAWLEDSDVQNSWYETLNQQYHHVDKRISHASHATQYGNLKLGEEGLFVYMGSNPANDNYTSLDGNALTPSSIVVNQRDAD

| Molecule | kcat relative to OaAEP1b [1] | amount of enzyme typically required to perform productive ligations [2] [µM] |
| --- | --- | --- |
| B1 | about 90 times | – |
| B2 | – | 10 to 30 |
